Laboratory results reported in patent publication US8796209B2, “Compositions and methods related to anti-FGF agents” (The Regents of the University of California, priority 2005, dated 2014).
Blank lines part the entries; values can stand above or below the molecule they belong to.

Assays:
integrin αvβ3 = biological target: T1, integrin αvβ3 (Homo sapiens, UniProt P05106+P06756); assay: Soluble integrin binding assay (ELISA-type), soluble αvβ3 on immobilized FGF; conditions: coated at 10 μg/ml; soluble αvβ3 5 μg/ml, 1 mM MnCl2
T1 construct: using the soluble αv and β3 expression constructs provided by Tim Springer; made in house; host or cells: CHO K1
Description: Wells of 96-well microtiter plates were coated with 10 μg/ml FGF-1 or FGF-2 and remaining protein binding sites were blocked with 1 mg/ml BSA. Recombinant soluble αvβ3 (50 μl/well at 5 μg/ml in Hepes-Tyrode buffer supplemented with 1 mM MnCl2) was added to wells and incubated for 1 h at room temperature. Soluble αvβ3 was incubated with 10 μg/ml 7E3 (white bar) or mouse IgG (black bar) for 10 min on ice prior to adding to the wells. BSA (circle) was used as a negative control. Data is shown as means+/−SD of triplicate experiments.
FGF-1 (10 μg/m) was heat-treated at indicated temperature for 10 min prior to immobilization. Binding of soluble αvβ3 was determined as described in FIG. 1. Data is shown as percent binding+/−SD of triplicate experiments.
Amino acid residues in the integrin-binding site or in the FGFR-binding site were mutated individually or in groups. Wild-type (diamond), R50E (open square), N33A (closed square), 4xE (circle), 3xA (triangle) were coated to a plastic plate various concentration as indicated and the binding of soluble αvβ3 was determined as described in FIG. 2. BSA (cross) was used as a negative control. […] “4xE” represents the K127E/K128E/K133E/R134E mutant. “3xA” represents the E102A/Y109A/Q110A mutant.
Binding assays were performed as previously described (Takagi et al., 2001). Native or heat-denatured FGF-1 in 0.1 M carbonate buffer, pH 9.4, were incubated in a polystyrene 96-well non-tissue culture plates surface overnight at 4° C. Unbound FGF-1 was removed, and 200 μl of 0.1% bovine serum albumin in PBS was added and incubated for 60 min at room temperature. The wells were washed with PBS and soluble integrin αvβ3 in 50 μl in Hepes-Tyrode buffer supplemented with 1 mM Mn^2+ were added to the wells and incubated at room temperature for 60 min. After non-bound soluble integrin were removed by rinsing the wells with the same buffer. Horseradish peroxidase (HRP) conjugated anti His-tag mouse IgG was added to well and incubated 60 min. Non-bound antibodies were removed by rinsing the wells with the same buffer, bound integrins were quantified by measuring the absorbance of 450 nm developed from adding the substrate (3,3′,5,5′-tetramethylbenzidine) of HRP unbound protein was aspirated, and the wells were washed with PBS three times.

ERK1/2 = assay: MAP kinase (ERK1/2) activation, western blot; type: cell-based, mouse; conditions: 5 μg/ml heparin
Description: Serum starved Balb3T3 cells were stimulated with wild-type and mutant FGF-1s (5 ng/ml) in the presence or absence of 5 μg/ml heparin for 10 min at 37° C. Cell lysates were analyzed by western blotting with anti-phospho ERK1/2 (anti phospho-ERK). Total amount of ERK1/2 in each lane was determined by blotting with anti-ERK1/2. Controls contain medium alone (none) or medium containing 10% fetal calf serum (FCS).
Balb3T3 cells were grown to confluence and serum starved in DMEM supplemented with 0.4% fetal calf serum for 24 h, and stimulated with wild type and mutant FGF-1 (5 ng/ml) in the presence or absence of 5 μg/ml heparin for 10 min at 37° C. Cells were washed twice with ice-cold PBS and lysed with the lysis buffer (20 mM Tris-HCI pH 8.0, 120 mM NaCl, 5 mM EDTA, 0.5% Triton-X100, 1 mM PMSF, 1 mM DTT, 10 mM NaF, 1 mM Na3VO4, 10 μg/ml aprotinin). Cell lysates were separated on 4-12% NuPAGE Bis-Tris Gel (invitrogen). Proteins were then transferred to PVDF membranes (Milli-pore), probed with antibodies, and bound antibodies were detected by HRP-conjugated anti-mouse IgG and chemiluminescence HRP substrate (Pierce). The antibodies used were anti-phospho-ERK1/2, anti-ERK1/2 (Cell Signaling Technology).

FGF-1-αvβ3 interaction = biological target: T2, FGF-1-αvβ3 interaction (Homo sapiens, UniProt P05106+P06756); assay: Inhibition of FGF-1-αvβ3 interaction by γC; type: binding; conditions: immobilized FGF-1 10 μg/ml, increasing concentrations of soluble γC
T2 construct: using the soluble αv and β3 expression constructs provided by Tim Springer; made in house; host or cells: CHO K1 (integrin); E. coli BL21 (DE3) (FGF-1)
Description: FGF-1 (10 μg/m) was immobilized to the plastic plate. Soluble αvβ3 was added to the wells together with increasing concentrations of soluble γC. Binding was determined as described in A. Data is shown as percent binding+/−SD of triplicate experiments with no addition of γC as 100.
FGF-1 (10 μg/ml) was immobilized to wells of 96-well plates. Soluble αvβ3 integrin was added to the wells with various concentration of γC. Bound integrin was detected by using HRP-conjugated anti-6His antibodies and its substrate as described above.

T1 sequence (P06756 31-992 limits assumed): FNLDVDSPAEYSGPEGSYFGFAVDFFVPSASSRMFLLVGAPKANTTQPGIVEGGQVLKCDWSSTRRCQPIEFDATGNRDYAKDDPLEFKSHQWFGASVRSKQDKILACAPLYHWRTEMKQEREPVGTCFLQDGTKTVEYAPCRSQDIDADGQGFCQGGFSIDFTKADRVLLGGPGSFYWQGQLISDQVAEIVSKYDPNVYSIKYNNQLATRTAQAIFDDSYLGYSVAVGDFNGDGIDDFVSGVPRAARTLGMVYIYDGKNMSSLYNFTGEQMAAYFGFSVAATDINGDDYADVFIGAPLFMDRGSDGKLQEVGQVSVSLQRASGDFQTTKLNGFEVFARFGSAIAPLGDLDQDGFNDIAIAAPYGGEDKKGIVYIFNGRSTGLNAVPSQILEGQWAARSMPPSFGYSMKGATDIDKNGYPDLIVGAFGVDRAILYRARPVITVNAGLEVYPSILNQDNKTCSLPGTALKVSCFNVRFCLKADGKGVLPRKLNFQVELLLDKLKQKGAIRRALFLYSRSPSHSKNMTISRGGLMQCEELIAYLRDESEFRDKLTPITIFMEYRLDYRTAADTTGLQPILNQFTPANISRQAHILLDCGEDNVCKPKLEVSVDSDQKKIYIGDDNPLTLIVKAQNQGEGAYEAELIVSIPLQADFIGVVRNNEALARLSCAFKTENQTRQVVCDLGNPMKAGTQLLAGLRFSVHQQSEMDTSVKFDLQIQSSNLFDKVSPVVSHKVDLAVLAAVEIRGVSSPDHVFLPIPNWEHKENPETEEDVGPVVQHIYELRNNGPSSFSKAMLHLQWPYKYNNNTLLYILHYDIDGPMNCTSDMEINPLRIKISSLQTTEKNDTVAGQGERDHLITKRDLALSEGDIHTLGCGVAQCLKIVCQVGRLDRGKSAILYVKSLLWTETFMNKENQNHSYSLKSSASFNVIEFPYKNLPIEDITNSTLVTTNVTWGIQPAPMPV
T1 sequence (P05106 27-718 limits assumed): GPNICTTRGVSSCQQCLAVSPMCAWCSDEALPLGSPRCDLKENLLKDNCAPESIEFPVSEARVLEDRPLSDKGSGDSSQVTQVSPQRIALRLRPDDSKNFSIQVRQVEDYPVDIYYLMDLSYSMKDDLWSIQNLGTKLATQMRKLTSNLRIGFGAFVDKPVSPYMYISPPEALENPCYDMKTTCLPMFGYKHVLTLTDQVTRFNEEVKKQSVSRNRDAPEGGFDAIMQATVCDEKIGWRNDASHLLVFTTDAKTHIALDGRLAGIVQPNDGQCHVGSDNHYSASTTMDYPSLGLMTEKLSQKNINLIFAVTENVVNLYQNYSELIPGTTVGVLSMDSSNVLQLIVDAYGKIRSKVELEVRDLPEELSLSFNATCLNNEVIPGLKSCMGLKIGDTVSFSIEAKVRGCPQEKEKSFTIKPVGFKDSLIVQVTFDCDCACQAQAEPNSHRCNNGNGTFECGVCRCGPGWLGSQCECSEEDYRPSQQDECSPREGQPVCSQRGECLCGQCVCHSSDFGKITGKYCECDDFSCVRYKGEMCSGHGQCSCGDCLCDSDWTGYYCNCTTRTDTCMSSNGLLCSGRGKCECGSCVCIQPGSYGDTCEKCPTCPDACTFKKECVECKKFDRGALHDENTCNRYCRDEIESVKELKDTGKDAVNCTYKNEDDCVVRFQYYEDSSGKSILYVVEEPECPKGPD
T2 sequence (P06756 31-992 limits assumed): as the sequence (P06756 31-992 limits assumed) above
T2 sequence (P05106 27-718 limits assumed): as the sequence (P05106 27-718 limits assumed) above

- binding of soluble αvβ3 to the immobilized protein (integrin αvβ3): bound
Molecule: FGF-2: basic FGF, used as a positive control for αvβ3 binding

Molecule: heparin [reference compound]
- effect of heparin on FGF-1-induced ERK1/2 activation (ERK1/2): did not enhance

- blocking of FGF-1-αvβ3 interaction (FGF-1-αvβ3 interaction): effectively block
B1: γC: globular carboxyl-terminal domain of the fibrinogen γ-chain, a known ligand for αvβ3 (protein)
chain: KDCQDIANKGAKQSGLYFIKPLKANQQFLVYCEIDGSGNGWTVFQKRLDGSVDFKKNWIQYKEGFGHLSPTGTTEFWLGNEKIHLISTQSAIPYALRVELEDWNGRTSTADYAMFKVGPEADKYRLTYAYFAGGDAGDAFDGFDFGDDPSDKFFTSHNGMQFSTWDNDNDKFEGNCAEQDGSGWWMNKCHAGHLNGVYYQGGTYSKASTPNGYDNGIIWATWKTRWYSMKKTTMKIIPFNRLTIGEGQQHHLGGAKQAGDV
